# Source: patent US20100129369A1 (Eli Lilly, published 2010)
# T1: PlexinA2-ECD-Fc (human, UniProt O75051 35-1237)
# T1 construct: extracellular domain; Bought reagent
# T1 sequence (looked up): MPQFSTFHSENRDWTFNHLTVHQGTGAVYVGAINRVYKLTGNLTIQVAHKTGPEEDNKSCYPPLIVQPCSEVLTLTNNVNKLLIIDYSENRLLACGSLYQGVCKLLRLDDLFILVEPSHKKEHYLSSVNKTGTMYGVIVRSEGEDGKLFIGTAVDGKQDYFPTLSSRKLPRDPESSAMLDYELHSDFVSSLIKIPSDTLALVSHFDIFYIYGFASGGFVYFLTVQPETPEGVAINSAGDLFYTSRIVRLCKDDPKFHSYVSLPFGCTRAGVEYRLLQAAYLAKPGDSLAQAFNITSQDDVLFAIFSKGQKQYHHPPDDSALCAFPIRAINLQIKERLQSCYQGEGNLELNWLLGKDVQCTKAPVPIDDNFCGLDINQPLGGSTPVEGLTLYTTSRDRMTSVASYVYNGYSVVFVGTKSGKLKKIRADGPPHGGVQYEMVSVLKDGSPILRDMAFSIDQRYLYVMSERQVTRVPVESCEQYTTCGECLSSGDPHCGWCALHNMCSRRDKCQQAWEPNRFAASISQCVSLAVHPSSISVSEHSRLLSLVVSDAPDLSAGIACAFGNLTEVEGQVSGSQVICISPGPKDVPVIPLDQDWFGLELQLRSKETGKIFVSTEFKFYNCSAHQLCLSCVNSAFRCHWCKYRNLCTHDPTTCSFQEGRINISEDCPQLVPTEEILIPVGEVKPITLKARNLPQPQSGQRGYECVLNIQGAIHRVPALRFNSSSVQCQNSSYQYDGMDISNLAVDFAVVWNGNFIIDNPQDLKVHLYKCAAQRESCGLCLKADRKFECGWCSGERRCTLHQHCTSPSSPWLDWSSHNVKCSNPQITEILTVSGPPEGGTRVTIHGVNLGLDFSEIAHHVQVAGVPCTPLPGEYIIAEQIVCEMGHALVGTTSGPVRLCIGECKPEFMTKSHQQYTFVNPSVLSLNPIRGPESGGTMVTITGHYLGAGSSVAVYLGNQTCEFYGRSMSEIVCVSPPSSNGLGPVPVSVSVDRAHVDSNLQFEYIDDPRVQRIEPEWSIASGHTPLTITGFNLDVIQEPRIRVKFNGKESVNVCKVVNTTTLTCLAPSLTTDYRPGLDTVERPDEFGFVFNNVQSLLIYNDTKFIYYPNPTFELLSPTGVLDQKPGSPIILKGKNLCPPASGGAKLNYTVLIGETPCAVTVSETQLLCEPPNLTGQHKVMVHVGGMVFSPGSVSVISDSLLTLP
# T2: RON-ECD-Fc (human, UniProt Q04912 25-957)
# T2 construct: extracellular domain; Bought reagent; not shown: Fc part of the bought fusion
# T2 sequence (looked up): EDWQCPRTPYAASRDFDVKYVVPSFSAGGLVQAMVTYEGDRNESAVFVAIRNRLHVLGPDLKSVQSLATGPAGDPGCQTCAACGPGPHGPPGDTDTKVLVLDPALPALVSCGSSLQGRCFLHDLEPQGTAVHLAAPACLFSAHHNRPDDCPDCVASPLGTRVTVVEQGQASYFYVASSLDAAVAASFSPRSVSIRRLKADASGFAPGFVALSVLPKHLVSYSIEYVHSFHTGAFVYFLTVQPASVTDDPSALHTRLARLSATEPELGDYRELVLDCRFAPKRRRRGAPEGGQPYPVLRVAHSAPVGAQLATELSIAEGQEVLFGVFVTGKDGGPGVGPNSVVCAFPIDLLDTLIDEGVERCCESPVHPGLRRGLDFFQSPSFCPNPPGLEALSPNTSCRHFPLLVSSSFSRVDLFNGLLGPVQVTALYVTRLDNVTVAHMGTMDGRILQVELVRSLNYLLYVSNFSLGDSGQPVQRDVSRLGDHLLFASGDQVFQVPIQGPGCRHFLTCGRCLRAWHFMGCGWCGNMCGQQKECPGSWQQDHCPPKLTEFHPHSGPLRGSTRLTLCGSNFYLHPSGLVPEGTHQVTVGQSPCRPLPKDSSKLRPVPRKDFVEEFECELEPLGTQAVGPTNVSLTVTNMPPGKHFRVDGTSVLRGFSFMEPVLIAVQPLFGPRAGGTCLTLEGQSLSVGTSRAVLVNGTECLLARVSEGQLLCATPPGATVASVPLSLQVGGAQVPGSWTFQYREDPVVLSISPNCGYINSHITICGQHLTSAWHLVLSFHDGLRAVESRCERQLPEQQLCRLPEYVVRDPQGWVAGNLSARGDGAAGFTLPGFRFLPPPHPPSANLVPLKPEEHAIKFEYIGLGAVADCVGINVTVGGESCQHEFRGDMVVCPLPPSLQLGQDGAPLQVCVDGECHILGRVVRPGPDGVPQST
# Key:
# [1] = biological target: T1, PlexinA2-ECD-Fc; assay: ELISA, coated ECD-Fc, antibody 0.357 ng/mL
# Protocol: (§1) Wells of 96-well EIA/RIA high binding plates (Costar, #2592) are coated with 100 μL of 1 μg/mL human c-Met extracellular domain (ECD)-Fc-Flis fusion (SEQ ID NO:72), RON-ECD-Fc (R&D Systems, #1947-MS), or PlexinA2-ECD-Fc (Abnova, Taipei, Taiwan #H00005362-P01) in coating buffer (BioFX Labs, # COAT-1000-01) overnight at 4° C. […] After the plates are washed, 100 μL/well of substrate solution (BioFx, #TMBW-1000-01) are added and the plates are incubated for 10 min. at room temperature. 100 μL/well of stop solution (BioFx, # LSTP-1000-01) are added to stop the reaction. The colorimetric signals are developed and read at 450 nm using a SpectraMax 190 plate reader (Molecular Devices, Sunnyvale, Calif.). c-Met antibody binding to c-Met, RON and PlexinA2 ECDs is proportional to color signal production.
# [2] = biological target: T3, Human c-Met-Flis-Fc ECD (human); assay: ELISA, coated ECD-Fc, antibody 0.357 ng/mL
# T3 construct: also called human c-Met extracellular domain (ECD)-Fc-Flis fusion; Human cMet-ECD-Fc-Flis
# T3 sequence (chain, as listed by the source limits assumed): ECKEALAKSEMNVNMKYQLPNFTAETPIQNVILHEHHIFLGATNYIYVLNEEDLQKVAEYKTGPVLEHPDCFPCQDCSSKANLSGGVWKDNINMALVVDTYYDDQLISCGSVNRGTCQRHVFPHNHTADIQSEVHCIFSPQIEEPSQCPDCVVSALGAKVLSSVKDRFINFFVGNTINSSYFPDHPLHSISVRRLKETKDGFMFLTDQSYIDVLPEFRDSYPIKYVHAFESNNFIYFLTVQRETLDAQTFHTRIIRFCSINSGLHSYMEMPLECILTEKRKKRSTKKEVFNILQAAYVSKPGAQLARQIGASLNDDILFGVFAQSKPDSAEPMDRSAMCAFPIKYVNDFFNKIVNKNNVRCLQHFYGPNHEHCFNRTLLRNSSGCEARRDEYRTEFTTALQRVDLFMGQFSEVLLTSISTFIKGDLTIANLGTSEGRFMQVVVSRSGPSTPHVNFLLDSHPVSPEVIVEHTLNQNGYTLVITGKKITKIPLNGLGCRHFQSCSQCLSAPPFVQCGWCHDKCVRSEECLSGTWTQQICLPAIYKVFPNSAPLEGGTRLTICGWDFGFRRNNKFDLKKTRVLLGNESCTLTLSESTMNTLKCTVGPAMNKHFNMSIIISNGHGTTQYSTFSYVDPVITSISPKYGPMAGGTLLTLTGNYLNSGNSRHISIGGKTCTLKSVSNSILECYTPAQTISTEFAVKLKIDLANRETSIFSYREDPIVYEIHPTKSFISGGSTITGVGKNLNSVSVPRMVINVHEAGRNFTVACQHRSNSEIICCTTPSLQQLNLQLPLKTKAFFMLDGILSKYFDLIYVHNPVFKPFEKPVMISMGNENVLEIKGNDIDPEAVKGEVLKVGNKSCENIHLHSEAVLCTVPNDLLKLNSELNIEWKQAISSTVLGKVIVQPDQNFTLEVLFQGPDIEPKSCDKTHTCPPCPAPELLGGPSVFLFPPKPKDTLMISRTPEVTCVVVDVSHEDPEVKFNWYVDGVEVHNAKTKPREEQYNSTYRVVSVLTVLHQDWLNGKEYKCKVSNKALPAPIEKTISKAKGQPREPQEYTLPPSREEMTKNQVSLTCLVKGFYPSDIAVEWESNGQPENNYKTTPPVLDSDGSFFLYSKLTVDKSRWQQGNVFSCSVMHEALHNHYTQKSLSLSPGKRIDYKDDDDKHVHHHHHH
# Protocol: as §1
# [3] = biological target: T2, RON-ECD-Fc; assay: ELISA, coated ECD-Fc, antibody 12.860 ng/mL
# Protocol: as §1
# [4] = biological target: T1, PlexinA2-ECD-Fc; assay: ELISA, coated ECD-Fc, antibody 12.860 ng/mL
# Protocol: as §1
# [5] = biological target: T3, Human c-Met-Flis-Fc ECD; assay: ELISA, coated ECD-Fc, antibody 12.860 ng/mL
# Protocol: as §1
# [6] = biological target: T2, RON-ECD-Fc; assay: ELISA, coated ECD-Fc, antibody 16666.667 ng/mL
# [7] = biological target: T1, PlexinA2-ECD-Fc; assay: ELISA, coated ECD-Fc, antibody 16666.667 ng/mL
binder,measurement,setting,value
"C8-6 (antibody, human IgG2, kappa, V domains shown, Called IgG4, kappa; also called Mab C8-6) VH: QVQLVQSGAEVKKPGASVKVSCKASGYTFTDYYMHWVRQAPGQGLEWMGRVNPNRGGTTYNQKFEGRVTMTTDTSTSTAYMELRSLRSDDTAVYYCARTNWLDYWGQGTTVTVSS VL: DIQMTQSPSSLSASVGDRVTITCSVSSSVSSIYLHWYQQKPGKAPKLLIYSTSNLASGVPSRFSGSGSGTDFTLTISSLQPEDFATYYCIQYSGYPLTFGGGTKVEIKR",Average A450 nm,[1],0.107 A450 nm
same,Average A450 nm,[2],0.813 A450 nm
same,Average A450 nm,[3],0.087 A450 nm
same,Average A450 nm,[4],0.085 A450 nm
same,Average A450 nm,[5],4 A450 nm
same,Average A450 nm,[6],0.124 A450 nm
same,Average A450 nm,[7],0.118 A450 nm
